Data taken from patent publication US9687560B2, “Skin-permeating peptide” (LG Household & Health Care Ltd., priority 2012, dated 2017).
Entries after “also recorded” stand apart in the source; their conditions may differ. Primed or numbered codes have the meaning given here. Ends that are not written are not given here. Dansyl′ = dansyl group

Tests used:
[1] = tested on: porcine skin; assay: Skin retention test of skin permeable peptide derivative (fluorescence); format: binding; conditions: for Fluorescent intensity (340/520), amount of peptide derivative remaining in porcine skin: 10 minutes incubation with skin, washed ten times; for Level of peptide derivative remaining in the skin (in words): compared to control group / among the 10 peptides
Protocol: To examine skin binding affinity of the derivatives synthesized in Example 3, the porcine skin was reacted with each of the derivatives, and the amount of the peptide dissolved in the surface was measured. In detail, the porcine skin was cut and put in a 1.5 ml tube, and 500 μl of TBS (1% BSA) was added thereto. […] After incubation, washing was performed using TBS (1% BSA) at 12,000 RPM for 1 minute ten times, and the porcine skin in which the reaction was completed was transferred to a 24-well plate. The amount of the peptide remaining on the surface was measured using a victor fluorescence meter (340/520) and compared (Table 4).

[2] = tested on: porcine skin; assay: Skin permeability test of skin permeable peptide derivative (Franz glass cell, fluorescence); format: in vitro ADME
Protocol: A dansyl group was linked at the C-terminus of each peptide having any one amino acid sequence of SEQ ID NOs. 1 to 10 which were selected in Example 1 so as to synthesize a derivative thereof, and it was intended to examine skin permeability thereof. In detail, each of the peptides was chemically synthesized, and then a dansyl group was added at the C-terminus of each peptide to synthesize a derivative thereof. As a control group, a peptide composed of the amino acid sequence of “[…] NO. 21)” which was prepared by adding a dansyl group at the C-terminus was used. […] Then, each derivative was added at the same concentration to the top of the cell, followed by incubation for 16 hours. After completion of the incubation, the amount of each derivative in the receiver at the bottom was measured using a victor fluorescence meter (340/520) to compare permeation degree (Table 2),

[3] = tested on: porcine skin; assay: Skin retention test of phage including skin permeable peptide (anti-M13 antibody-HRP, absorbance); format: binding; conditions: compared to control group / among the 10 peptides
Text: Skin permeation mainly occurs by the mechanism of a diffusion of a substance dissolved in the components of the skin from the outermost layer to the innermost layers. Through this mechanism, an active ingredient can be effectively delivered throughout the skin. The skin surface is composed of corneocytes and intercellular materials. […] In this case, the product first binds to the skin, and then diffuses into the inner layer. Therefore, binding affinity of the selected phages to the skin was measured to examine the superiority of the peptides.
To measure the amount of the phage binding to the porcine skin, anti-M13 antibody-HRP conjugate was used. […] The porcine skin thus cut was put in a 1.5 ml tube, and 500 μl of TBS (1% BSA) was added thereto. […] Thereafter, they were washed using 1% BSA-containing TBS solution at 12,000 RPM for 1 minute 10 times. Subsequently, 500 μl of TBS solution containing anti-M13 antibody-HRP (Horseradish peroxidase) conjugate-containing 1% BSA was added, followed by incubation for 5 minutes. TBS solution containing 1% BSA was added to the culture, followed by washing at 12,000 RPM for 1 minute 10 times. The residual buffer was completely removed, and TMB solution (Tetramethylbenzidine solution, Amersham) was further added. […] Then, absorbance (450 nm) was measured to determine binding affinity between phage-skin.

| Skin binding affinity / skin retention of phage (in words) [3] | Substance | Fluorescent intensity (340/520), amount of peptide derivative remaining in porcine skin [1] | Level of peptide derivative remaining in the skin (in words) [1] | Fluorescence intensity (340/520), amount of porcine skin-permeating peptide derivative [2] | Skin permeability of peptide derivative (in words) [2] |
| --- | --- | --- | --- | --- | --- |
| highest skin binding affinity | S3-2 peptide derivative: peptide NGSLNTHLAPIL (SEQ ID NO. 2) with a dansyl group added at the C-terminus (NGSLNTHLAPIL-{Dansyl′}) | 260000 | relatively high level; also recorded: highest level | 70000 |  |
|  | S3-1 peptide derivative: peptide NQTDHLFSTFIS (SEQ ID NO. 1) with a dansyl group added at the C-terminus (NQTDHLFSTFIS-{Dansyl′}) | 143000 | relatively high level | 42000 | relatively excellent skin permeability |
|  | S4-4 peptide derivative: peptide IFAALDYNLGRH (SEQ ID NO. 7) with a dansyl group added at the C-terminus (IFAALDYNLGRH-{Dansyl′}) | 13200 |  | 4400 |  |
|  | S4-10 peptide derivative: peptide TNIPSLSGILMK (SEQ ID NO. 10) with a dansyl group added at the C-terminus (TNIPSLSGILMK-{Dansyl′}) | 25000 |  | 9000 |  |
|  | S3-7 peptide derivative: peptide ELKQVVISDINH (SEQ ID NO. 4) with a dansyl group added at the C-terminus (ELKQVVISDINH-{Dansyl′}) | 98000 | relatively high level | 25000 | relatively excellent skin permeability |
|  | S3-3 peptide derivative: peptide GGSIAASELEYY (SEQ ID NO. 3) with a dansyl group added at the C-terminus (GGSIAASELEYY-{Dansyl′}) | 47000 |  | 19000 | relatively excellent skin permeability |
|  | S4-7 peptide derivative: peptide DMKWTLKEWMTH (SEQ ID NO. 8) with a dansyl group added at the C-terminus (DMKWTLKEWMTH-{Dansyl′}) | 37600 |  | 8600 |  |
|  | S3-8 peptide derivative: peptide MVRDHPGLSGWT (SEQ ID NO. 5) with a dansyl group added at the C-terminus (MVRDHPGLSGWT-{Dansyl′}) | 100000 | relatively high level | 22000 | relatively excellent skin permeability |
|  | S3-9 peptide derivative: peptide TSGISINKLPHT (SEQ ID NO. 6) with a dansyl group added at the C-terminus (TSGISINKLPHT-{Dansyl′}) | 47000 |  | 18000 | relatively excellent skin permeability |
|  | S4-9 peptide derivative: peptide QIEKHVYFNASQ (SEQ ID NO. 9) with a dansyl group added at the C-terminus (QIEKHVYFNASQ-{Dansyl′}) | 56000 |  | 16000 | relatively excellent skin permeability |
